The values below come from PMC13365592.

Experiment in all cases: cryo-EM structure
Assay [1] deals with MEL_213b (melbournevirus).
The target in a further assay is MEL_256 (melbournevirus).
The target of assay [2] is major capsid protein MEL_305 (melbournevirus).

As usually defined, the stoichiometry N is the number of molecules, sites or subunits per partner or assembly.

For MEL_213b (natural protein), the stoichiometry N in assay [1] amounted to 2.

As for MEL_256 (natural protein), in the assay with MEL_256 (melbournevirus), the stoichiometry N worked out at 5.

“major capsid protein MEL_305 (natural protein)” came in with a stoichiometry N in assay [2] of 3.
